The chains are these.
T1: BSA-conjugated Aβ heptapeptide AEFRHDC (C-terminal Cys coupled to NSMP-activated BSA)
T1 construct: also called Peptide 2-7
T1 peptide: AEFRHDC

T2: BSA-conjugated Aβ heptapeptide LVFFAEC (reading uncertain; also: BSA conjugate)
T2 construct: also called Peptide 17-22
T2 peptide: LVFFAEC([NSMP-BSA])

T3: BSA-conjugated Aβ heptapeptide VFFAEDC (C-terminal Cys coupled to NSMP-activated BSA)
T3 construct: also called Peptide 18-23
T3 peptide: VFFAEDC

T4: BSA-conjugated Aβ heptapeptide FFAEDVC (C-terminal Cys coupled to NSMP-activated BSA)
T4 construct: also called Peptide 19-24
T4 peptide: FFAEDVC

B1: MS-Roche #8.1.H1 Fab (Fab, V domains shown)
VH: QVQLVESGGGLVQPGGSLRLSCAASGFTFSSYAMSWVRQAPGKGLEWVSAISRSGSNIYYADSVKGRFTISRDNSKNTLYLQMNSLRAEDTAVYYCARLLSRGYNGYYHKFDVWGQGTLVTVSS
VL: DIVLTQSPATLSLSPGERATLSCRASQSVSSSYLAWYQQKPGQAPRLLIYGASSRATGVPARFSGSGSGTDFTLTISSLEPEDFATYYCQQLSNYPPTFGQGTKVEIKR
B2: MS-Roche #3.2.H2 Fab (Fab, V domains shown)
VH: QVQLVESGGGLVQPGGSLRLSCAASGFTFSSYAMSWVRQAPGKGLEWVSAISQRGQFTYYADSVKGRFTISRDNSKNTLYLQMNSLRAEDTAVYYCARLTHYARYYRYFDVWGQGTLVTVSS
VL: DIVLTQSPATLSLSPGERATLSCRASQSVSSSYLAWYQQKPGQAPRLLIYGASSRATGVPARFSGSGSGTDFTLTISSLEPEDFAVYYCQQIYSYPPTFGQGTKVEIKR
B3: MS-Roche #3.4.H1 Fab (Fab, V domains shown)
VH: B2 VH with Q53E, R54T, G55S, Q56I, F57R, T58K
VL: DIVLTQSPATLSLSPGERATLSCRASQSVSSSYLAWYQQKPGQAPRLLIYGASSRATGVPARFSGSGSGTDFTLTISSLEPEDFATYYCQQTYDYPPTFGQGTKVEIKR
B4: MS-Roche #3.4.H5 Fab (Fab, V domains shown)
VH: B2 VH with A50V, R54V, Q56A, F57H, T58I
VL: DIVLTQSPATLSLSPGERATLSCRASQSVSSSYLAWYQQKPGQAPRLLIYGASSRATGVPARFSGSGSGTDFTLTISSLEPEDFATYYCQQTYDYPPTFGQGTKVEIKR
B5: MS-Roche #3.4.H3 Fab (Fab, V domains shown)
VH: B2 VH with A50V, R54T, Q56R, F57K, T58I
VL: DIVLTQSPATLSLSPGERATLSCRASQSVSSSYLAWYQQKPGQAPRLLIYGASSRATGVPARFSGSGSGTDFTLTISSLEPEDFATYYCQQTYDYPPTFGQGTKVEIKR
B6: MS-Roche #3.3.H1 Fab (Fab, V domains shown)
VH: B2 VH with A50V, Q53E, R54K, G55S, Q56R, T58I
VL: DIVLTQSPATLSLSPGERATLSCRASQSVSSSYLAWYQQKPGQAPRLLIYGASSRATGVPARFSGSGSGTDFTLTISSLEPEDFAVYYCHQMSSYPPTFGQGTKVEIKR
B7: MS-Roche #3.6.H1 Fab (Fab, V domains shown)
VH: B2 VH with A50V, Q53E, R54S, F57Y, T58K
VL: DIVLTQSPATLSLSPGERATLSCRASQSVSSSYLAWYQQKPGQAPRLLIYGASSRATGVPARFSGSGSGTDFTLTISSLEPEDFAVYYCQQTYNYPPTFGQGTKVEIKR
B8: MS-Roche #3.6.H6 Fab (Fab, V domains shown)
VH: B2 VH with Q53E, R54H, Q56T, F57N, T58I
VL: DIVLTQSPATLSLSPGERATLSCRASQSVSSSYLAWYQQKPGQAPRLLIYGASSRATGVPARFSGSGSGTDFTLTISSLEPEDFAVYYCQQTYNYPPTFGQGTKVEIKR
B9: MS-Roche #3.3.H3 Fab (Fab, V domains shown)
VH: B2 VH with R54N, Q56F, F57H, T58I
VL: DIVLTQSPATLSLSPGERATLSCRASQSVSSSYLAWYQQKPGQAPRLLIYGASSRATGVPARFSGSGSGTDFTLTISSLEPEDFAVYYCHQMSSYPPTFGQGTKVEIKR
B10: MS-Roche #3.4.L11 Fab (Fab, V domains shown)
VH: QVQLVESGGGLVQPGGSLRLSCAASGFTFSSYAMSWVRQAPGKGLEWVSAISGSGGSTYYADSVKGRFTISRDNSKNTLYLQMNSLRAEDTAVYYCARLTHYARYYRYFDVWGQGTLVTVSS
VL: DIVLTQSPATLSLSPGERATLSCRASQLVGRAYLAWYQQKPGQAPRLLIYGASSRATGVPARFSGSGSGTDFTLTISSLEPEDFATYYCQQTYDYPPTFGQGTKVEIKR
B11: MS-Roche #3.6.H2 Fab (Fab, V domains shown)
VH: B2 VH with A50V, Q53E, Q56I, F57N
VL: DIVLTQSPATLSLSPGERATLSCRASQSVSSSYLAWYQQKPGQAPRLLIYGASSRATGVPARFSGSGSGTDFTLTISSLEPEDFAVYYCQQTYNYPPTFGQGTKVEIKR
B12: MS-Roche #7.9.H3 Fab (Fab, V domains shown)
VH: QVQLVESGGGLVQPGGSLRLSCAASGFTFSSYAMSWVRQAPGKGLEWVSAINYQGNRKYYADSVKGRFTISRDNSKNTLYLQMNSLRAEDTAVYYCARGKGNTHKPYGYVRYFDVWGQGTLVTVSS
VL: B10 VL with L28S, G30S, R31S, A32S, Q90L, T92I, D94N, Y95M, P97I
notes: assembled
B13: MS-Roche #7.11 Fab (Fab, V domains shown)
VH: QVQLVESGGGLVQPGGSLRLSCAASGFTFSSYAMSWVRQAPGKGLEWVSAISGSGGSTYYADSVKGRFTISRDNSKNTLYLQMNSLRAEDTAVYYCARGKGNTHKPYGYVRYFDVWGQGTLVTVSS
VL: B10 VL with L28S, G30S, R31S, A32S, T92V, D94S, Y95P, P97H
B14: MS-Roche #7.9.H4 Fab (Fab, V domains shown)
VH: B12 VH with Y53A, Q54V, N56M, R57K, Y59F
VL: B10 VL with L28S, G30S, R31S, A32S, Q90L, T92I, D94N, Y95M, P97I
notes: assembled
B15: MS-Roche #7.11.H1 Fab (Fab, V domains shown)
VH: B12 VH with A50G, Y53A, Q54A, N56F, K58T
VL: B10 VL with L28S, G30S, R31S, A32S, T92V, D94S, Y95P, P97H
B16: MS-Roche #7.11.H2 Fab (Fab, V domains shown)
VH: B12 VH with Y53A, Q54N, N56Y, R57K
VL: B10 VL with L28S, G30S, R31S, A32S, T92V, D94S, Y95P, P97H

Substitutions are numbered along the chain they refer to. Groups on a side chain read outwards from the residue. No end group written: not given here. NSMP = not defined here

What is called Kd is the equilibrium constant for the complex coming apart. A low value points to a tighter complex.
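Wherever OD ratio 17-22/BSA is given: ELISA of antibody at 10 or 2 µg/ml binding plate-coated BSA–peptide conjugates, detected with HRP anti-human Ig and TMB colour, mock-treated BSA without peptide as negative control.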
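Wherever OD ratio 18-23/BSA is given: ELISA of antibody at 10 or 2 µg/ml binding plate-coated BSA–peptide conjugates, detected with HRP anti-human Ig and TMB colour, mock-treated BSA without peptide as negative control.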
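Wherever OD ratio 2-7/BSA is given: ELISA of antibody at 10 or 2 µg/ml binding plate-coated BSA–peptide conjugates, detected with HRP anti-human Ig and TMB colour, mock-treated BSA without peptide as negative control.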
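Wherever Peptide-ratio 17-22/2-7 is given: ELISA of antibody at 10 or 2 µg/ml binding plate-coated BSA–peptide conjugates, detected with HRP anti-human Ig and TMB colour, mock-treated BSA without peptide as negative control.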

The target in one test is T1, BSA-conjugated Aβ heptapeptide AEFRHDC. Nature of the test: ELISA. (In general: An ELISA detects its analyte on a solid surface through an enzyme-linked reagent.)
As for B1, the “OD ratio 2-7/BSA” value turned out to be 29.
On the same count and under the same terms, the value for B2 was 26; that for B3 was 27.
Same read-out and setting: the value for B4 was 28; that for B5 was 22; that for B6 was 23.
The same measure, in the same setting: as for B7, the figure is 23.
With B8, the “OD ratio 2-7/BSA” value turned out to be 25.
On to B9, for which the “OD ratio 2-7/BSA” value came to 31.
Take B10: the “OD ratio 2-7/BSA” value came out at 31.
Still for that read-out and setting: the value for B11 was 19; that for B12 was 35; that for B13 was 37.
Still for that read-out and setting: the value for B14 was 30; that for B15 was 31.
On the same count and under the same terms, as for B16, the figure is 34.

The target in a further test is T2, BSA-conjugated Aβ heptapeptide LVFFAEC. Nature of the test: ELISA.
Take B1: the “OD ratio 17-22/BSA” value was 22 and the “Peptide-ratio 17-22/2-7” value is 0.77.
With B2, the “OD ratio 17-22/BSA” value is 12 and the “Peptide-ratio 17-22/2-7” value is 0.46.
For the molecule B3, the “OD ratio 17-22/BSA” value is 2 and the “Peptide-ratio 17-22/2-7” value came to 0.07.
Take B4: the “OD ratio 17-22/BSA” value turned out to be 5 and the “Peptide-ratio 17-22/2-7” value turned out to be 0.18.
Consider B5, for which the “OD ratio 17-22/BSA” value is 9 and the “Peptide-ratio 17-22/2-7” value was found to be 0.41.
For B6, in that order: 4 and 0.17.
With B7, the “OD ratio 17-22/BSA” value was 3 and the “Peptide-ratio 17-22/2-7” value was found to be 0.13.
For B8, in that order: 1 and 0.04.
Regarding B9, the “OD ratio 17-22/BSA” value turned out to be 2 and the “Peptide-ratio 17-22/2-7” value was 0.06.
For B10, the “OD ratio 17-22/BSA” value came out at 6 and the “Peptide-ratio 17-22/2-7” value was found to be 0.19.
Consider B11, for which the “OD ratio 17-22/BSA” value was found to be 2 and the “Peptide-ratio 17-22/2-7” value came to 0.11.
For B12, in that order: 11 and 0.31.
For B13, in that order: 11 and 0.3.
For B14, in that order: 10 and 0.32.
B15: the “OD ratio 17-22/BSA” value amounted to 8 and the “Peptide-ratio 17-22/2-7” value was 0.25.
In the case of B16, the “OD ratio 17-22/BSA” value stood at 10 and the “Peptide-ratio 17-22/2-7” value amounted to 0.29.

The next test has as its target T3, BSA-conjugated Aβ heptapeptide VFFAEDC. Nature of the test: ELISA.
In the case of B1, the “OD ratio 18-23/BSA” value is 25 and the “Peptide-ratio 18-23/2-7” value is 0.88.
As to B2, the “OD ratio 18-23/BSA” value was determined as 23 and the “Peptide-ratio 18-23/2-7” value was determined as 0.88.
For B3, in that order: 8 and 0.3.
For B4, in that order: 13 and 0.46.
For B5, in that order: 17 and 0.77.
In the case of B6, the “OD ratio 18-23/BSA” value was 12 and the “Peptide-ratio 18-23/2-7” value came to 0.52.
For B7, in that order: 13 and 0.57.
As for B8, the “OD ratio 18-23/BSA” value turned out to be 4 and the “Peptide-ratio 18-23/2-7” value was determined as 0.16.
With B9, the “OD ratio 18-23/BSA” value worked out at 5 and the “Peptide-ratio 18-23/2-7” value stood at 0.16.
For B10, in that order: 20 and 0.65.
In the case of B11, the “OD ratio 18-23/BSA” value was determined as 8 and the “Peptide-ratio 18-23/2-7” value worked out at 0.42.
As to B12, the “OD ratio 18-23/BSA” value was determined as 20 and the “Peptide-ratio 18-23/2-7” value came to 0.57.
For the molecule B13, the “OD ratio 18-23/BSA” value was determined as 15 and the “Peptide-ratio 18-23/2-7” value is 0.41.
For B14, in that order: 15 and 0.49.
As to B15, the “OD ratio 18-23/BSA” value was determined as 9 and the “Peptide-ratio 18-23/2-7” value turned out to be 0.29.
For B16, in that order: 12 and 0.36.

For the next test, the target named is T4, BSA-conjugated Aβ heptapeptide FFAEDVC. Nature of the test: ELISA.
B1: the “OD ratio 19-24/BSA” value was determined as 25 and the “Peptide-ratio 19-24/2-7” value came out at 0.86.
B2: the “OD ratio 19-24/BSA” value is 20 and the “Peptide-ratio 19-24/2-7” value was found to be 0.77.
On to B3, for which the “OD ratio 19-24/BSA” value was 2 and the “Peptide-ratio 19-24/2-7” value was 0.07.
As to B4, the “OD ratio 19-24/BSA” value was 4 and the “Peptide-ratio 19-24/2-7” value was 0.14.
For the molecule B5, the “OD ratio 19-24/BSA” value is 11 and the “Peptide-ratio 19-24/2-7” value worked out at 0.5.
Take B6: the “OD ratio 19-24/BSA” value turned out to be 8 and the “Peptide-ratio 19-24/2-7” value turned out to be 0.35.
For B7, in that order: 5 and 0.22.
In the case of B8, the “OD ratio 19-24/BSA” value was found to be 7 and the “Peptide-ratio 19-24/2-7” value is 0.28.
For B9, in that order: 2 and 0.06.
On to B10, for which the “OD ratio 19-24/BSA” value came to 5 and the “Peptide-ratio 19-24/2-7” value stood at 0.16.
For B11, in that order: 3 and 0.16.
Take B12: the “OD ratio 19-24/BSA” value was 9 and the “Peptide-ratio 19-24/2-7” value is 0.27.
For B13, in that order: 9 and 0.24.
In the case of B14, the “OD ratio 19-24/BSA” value came out at 7 and the “Peptide-ratio 19-24/2-7” value is 0.22.
For B15, in that order: 8 and 0.25.
For B16, in that order: 14 and 0.41.

Another test concerns the target T5, human Aβ (1-40) peptide (human).
T5 construct: also called Aβ1-40 fibers
Nature of the test: SPR, immobilized fibers.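 Further: biacore SPR using in vitro grown Aβ1-40 or Aβ1-42 fibrils immobilized on the chip with Fab analytes, KD from koff/kon fits or equilibrium isotherms based on total Fab concentration.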
Experimental: (§1) Biacore2000 and Biacore3000 instruments were used for these measurements. Aβ1-40 and Aβ1-42 fibers were generated in vitro by incubation of synthetic peptides at a concentration of 200 μg/ml in 10 mM Na-acetate buffer (pH 4.0) for three days at 37° C. […] For binders with slow kinetics KD values were calculated by curve fitting of the time-dependent sensor responses, i.e. from the ratio of koff/kₒₙ. Binders with fast kinetics were analyzed by fitting the concentration-dependent sensor responses at equilibrium (adsorption-isotherms). KD values were calculated from the Biacore sensograms based on the total Fab concentration as determined by a protein assay. […] Briefly, time-dependent protein binding to Aβ1-40 fibers immobilized on the Biacore chip was measured during the association phase under mass-limited conditions at different flow rates of the analyte solution.
Consider B1, for which binding was characterised by a dissociation constant (Kd) of 13.6 nM.
Still for that read-out and setting: as for B2, the figure is 5.2 nM; as for B3, 13.5 nM.
As to B4, the Kd came to 26.5 nM.
On the same count and under the same terms, as for B5, the figure is 6.7 nM; as for B6, 17.1 nM; as for B7, 18.9 nM.
In the case of B8, the Kd turned out to be 36 nM.
On the same count and under the same terms, the value for B9 was 1.4 nM.
Same read-out and setting: as for B10, the figure is 5.3 nM.
Same read-out and setting: the value for B11 was 19.8 nM.
Molecule B12 displayed a Kd of 4.2 nM.
Still for that read-out and setting: as for B13, the figure is 22 nM; as for B14, 4.8 nM.
For B15, the Kd was found to be 12.7 nM.
Still for that read-out and setting: as for B16, the figure is 0.3 nM.

A further test has as its target T6, Aβ (1-42) peptide (human).
T6 construct: also called Aβ1-42 fibers; Aβ4
Nature of the test: SPR, immobilized fibers.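 Further: biacore SPR using in vitro grown Aβ1-40 or Aβ1-42 fibrils immobilized on the chip with Fab analytes, KD from koff/kon fits or equilibrium isotherms based on total Fab concentration.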 A general note: In SPR one partner is held on a chip, and binding of the other changes the refractive index at the surface.
Experimental: as §1
In the case of B1, the Kd was found to be 9.2 nM.
Same read-out and setting: as for B2, the figure is 1.1 nM; as for B3, 14 nM; as for B4, 36 nM.
B5 gave a Kd of 8.4 nM.
Still for that read-out and setting: as for B6, the figure is 19.4 nM; as for B7, 23.1 nM.
Molecule B8 returned a Kd of 11.8 nM.
Turning to B9, the Kd is 3.3 nM.
The molecule B10 showed a Kd of 2.6 nM.
Still for that read-out and setting: as for B11, the figure is 54 nM; as for B12, 2.8 nM.
On the same count and under the same terms, the value for B13 was 74 nM.
Same read-out and setting: the value for B14 was 4.2 nM; that for B15 was 6.7 nM; that for B16 was 0.3 nM.
